We go through 3 molecules from patent US7585952 (BIOTECHNOL S A, dated 2009).

Assay [1] concerns the target T1, human ErbB2 receptor (human, UniProt P04626 23-1255). As to the kind of experiment: cell-based or functional assay.
In assay [2] the target is T2, EGF receptor (EGFR, ErbB1) on A431 cells (human, UniProt P00533 25-1210).
T2 construct: whole, on cells; A431 cells also express ErbB2 at very low levels; also called homologous EGF receptor
As to the kind of experiment: flow cytometry on A431 cells (EGFR at 2x10^6 receptors per cell). On the technique in general: A flow cytometer gives signals particle by particle.

The target of assay [3] is T1, human ErbB2 receptor. As to the kind of experiment: cell-based or functional assay. This is another data set of the same source.

B1: Ph-Erbicin (human anti-ErbB2 scFv from type A clone, displayed on phage) (scFv)
scFv: QVQLLQSAAEVKKPGESLKISCKGSGYSFTSYWIGWVRQMPGKGLEWMGIIYPGDSDTRYSPSFQGQVTISADKSISTAYLQWSSLKASDTAVYYCARWRDSPLWGQGTLVTVSSGGGGSGGGGSGGSALQAVVTQEPSFSVSPGGTVTLTCGLSSGSVSTSYYPSWYQQTPGQAPRTLIYSTNTRSSGVPDRFSGSILGNKAALTITGAQADDESDYYCVLYMGSGQYVFGGGTKLTVLG
notes: Tested as whole phage particles carrying the scFv; also called A type phage clone; clone A
For the molecule B1, in the assay with human ErbB2 receptor [1], the “IC50 of inhibition of SKBR3 cell proliferation, 72 h” value (“IC50 of inhibition … 72 h” for short) was found to be 2.8e+10 cfu/ml; the “IC50 of inhibition of SKBR3 cell proliferation, expressed as scFv concentration in the phage preparation” value was 0.0013 µg/mL; the “antitumor activity on SKBR3 cells relative to soluble Erbicin” value was approximately 5000 fold. In assay [2], the binding result is given as “no binding”. In the assay with human ErbB2 receptor [3], the “Growth Inhibition (IC50, cfu/ml), BT-474 cells, 96 h” value was 2.5e+11 cfu/ml; the “Growth Inhibition (IC50, cfu/ml), MDA-MB453 cells, 96 h” value stood at 1.4e+11 cfu/ml; the “Growth Inhibition (IC50, cfu/ml), NIH 3T3 (ErbB2-trasf.) cells, 96 h” value was 3.5e+11 cfu/ml; the “Growth Inhibition (IC50, cfu/ml), SK-OV-3 cells, 96 h” value was 4e+11 cfu/ml. In addition, the “Growth Inhibition (IC50, cfu/ml), SKBR3 cells, 96 h” value with human ErbB2 receptor [3] was determined as 1.2e+10 cfu/ml.

B2: hERB-RNase (Erbicin fused to human pancreatic ribonuclease) (other)
chain: QVQLLQSAAEVKKPGESLKISCKGSGYSFTSYWIGWVRQMPGKGLEWMGIIYPGDSDTRYSPSFQGQVTISADKSISTAYLQWSSLKASDTAVYYCARWRDSPLWGQGTLVTVSSGGGGSGGGGSGGSALQAVVTQEPSFSVSPGGTVTLTCGLSSGSVSTSYYPSWYQQTPGQAPRTLIYSTNTRSSGVPDRFSGSILGNKAALTITGAQADDESDYYCVLYMGSGQYVFGGGTKLTVLGAAASGGPEGGSKESRAKKFQRQHMDSDSSPSSSSTYCNQMMRRRNMTQGRCKPVNTFVHEPLVDVQNVCFQEKVTCKNGQGNCYKSNSSMHITDCRLTNGSRYPNCAYRTSPKERHIIVACEGSPYVPVHFDASVEDST
Turning to B2, the “IC50 of inhibition … 72 h” value with human ErbB2 receptor [1] is approximately 20 nM.

B3: Erbicin (soluble human anti-ErbB2 scFv) (scFv, not shown: small tags and cut ends)
scFv: QVQLLQSAAEVKKPGESLKISCKGSGYSFTSYWIGWVRQMPGKGLEWMGIIYPGDSDTRYSPSFQGQVTISADKSISTAYLQWSSLKASDTAVYYCARWRDSPLWGQGTLVTVSSGGGGSGGGGSGGSALQAVVTQEPSFSVSPGGTVTLTCGLSSGSVSTSYYPSWYQQTPGQAPRTLIYSTNTRSSGVPDRFSGSILGNKAALTITGAQADDESDYYCVLYMGSGQYVFGGGTKLTVLGHHHHHH
On to B3, for which the “IC50 of inhibition … 72 h” value with human ErbB2 receptor [1] was determined as 6.4 µg/mL.
